Results on ten proteins are retold here after publication PMC9232105, “S-Adenosylmethionine–responsive cystathionine β-synthase modulates sulfur metabolism and redox balance in Mycobacterium tuberculosis” (Science Advances, 2022).

Substitutions are numbered along the chain they refer to. Numbers in names are those of the source. Read-outs that look alike come from different tables or passages of the source.

The stoichiometry N is a count of units in the complex or per binding partner.

The data set “SEC” deals with the molecule itself. Kind of data set: SEC. For orientation: SEC sorts molecules by how far they enter the pores of the column.
Data set [1] deals with the molecule itself.

B1: MtbCbs L454A (enzyme)
chain: MRIAQHISELIGGTPLVRLNSVVPDGAGTVAAKVEYLNPGGSSKDRIAVKMIEAAEASGQLKPGGTIVEPTSGNTGVGLALVAQRRGYKCVFVCPDKVSEDKRNVLIAYGAEVVVCPTAVPPHDPASYYSVSDRLVRDIDGAWKPDQYANPEGPASHYVTTGPEIWADTEGKVTHFVAGIGTGGTITGAGRYLKEVSGGRVRIVGADPEGSVYSGGAGRPYLVEGVGEDFWPAAYDPSVPDEIIAVSDSDSFDMTRRLAREEAMLVGGSCGMAVVAALKVAEEAGPDALIVVLLPDGGRGYMSKIFNDAWMSSYGFLRSRLDGSTEQSTVGDVLRRKSGALPALVHTHPSETVRDAIGILREYGVSQMPVVGAEPPVMAGEVAGSVSERELLSAVFEGRAKLADAVSAHMSPPLRMIGAGELVSAAGKALRDWDALMVVEEGKPVGVITRYDLAGFLSEGAGRR
B1: the binding result in the data set “SEC” is “binds”.

B2: MtbCbs S393R (enzyme)
chain: B1 chain with S393R, A454L
On to B2, for which the binding result in the data set “SEC” is “binds”.

B3: MtbCbs S411A (enzyme)
chain: B1 chain with S411A, A454L
With B3, the “stoichiometry N” value in data set [1] was 4.

B4: MtbCbs I357A (enzyme)
chain: B1 chain with I357A, A454L
notes: also called I357A mutant
With B4, the binding result in the data set “SEC” is on record as “binds”.

B5: MtbCbs W433F (enzyme)
chain: B1 chain with W433F, A454L
Turning to B5, the “stoichiometry N” value in data set [1] is 4.

B6: MtbCbs D432N (enzyme)
chain: B1 chain with D432N, A454L
B6: the “stoichiometry N” value in data set [1] is 4.

B7: MtbCbs E388A (enzyme)
chain: B1 chain with E388A, A454L
On to B7, for which the binding result in “SEC” is listed as “binds”.

B8: MtbCbs E390A (enzyme)
chain: B1 chain with E390A, A454L
For B8, in data set [1], the “stoichiometry N” value worked out at 4.

B9: MtbCbs R450A (enzyme)
chain: B1 chain with R450A, A454L
In the case of B9, the binding result in “SEC” is listed as “binds”.

B10: MtbCbs mutant lacking the Bateman module (MtbCbs 1-317) (domain or fragment)
chain: MRIAQHISELIGGTPLVRLNSVVPDGAGTVAAKVEYLNPGGSSKDRIAVKMIEAAEASGQLKPGGTIVEPTSGNTGVGLALVAQRRGYKCVFVCPDKVSEDKRNVLIAYGAEVVVCPTAVPPHDPASYYSVSDRLVRDIDGAWKPDQYANPEGPASHYVTTGPEIWADTEGKVTHFVAGIGTGGTITGAGRYLKEVSGGRVRIVGADPEGSVYSGGAGRPYLVEGVGEDFWPAAYDPSVPDEIIAVSDSDSFDMTRRLAREEAMLVGGSCGMAVVAALKVAEEAGPDALIVVLLPDGGRGYMSKIFNDAWMSSYGFL
As for B10, the “stoichiometry N” value in “SEC” came to 2.
